Results reported in patent US20140087995A1 (published 2014).
Numbered stars: 1 amine (or outer) side, 2 acyl side, 3 side chain; on linkers, the order of the positions; unused ones are H or OH. Bridge positions count the residues as written; N and C are the ends. Side chains are listed from the residue outwards. Ends that are not written are not given here. * marks the point of attachment. C20 diacid = O=C(O)CCCCCCCCCCCCCCCCCCC(=O)*; γGlu = O=C(O)[C@H](CCC(=O)[*:2])N[*:1]

T1: human calcitonin receptor (human, UniProt P30988 25-474)
T1 sequence (looked up): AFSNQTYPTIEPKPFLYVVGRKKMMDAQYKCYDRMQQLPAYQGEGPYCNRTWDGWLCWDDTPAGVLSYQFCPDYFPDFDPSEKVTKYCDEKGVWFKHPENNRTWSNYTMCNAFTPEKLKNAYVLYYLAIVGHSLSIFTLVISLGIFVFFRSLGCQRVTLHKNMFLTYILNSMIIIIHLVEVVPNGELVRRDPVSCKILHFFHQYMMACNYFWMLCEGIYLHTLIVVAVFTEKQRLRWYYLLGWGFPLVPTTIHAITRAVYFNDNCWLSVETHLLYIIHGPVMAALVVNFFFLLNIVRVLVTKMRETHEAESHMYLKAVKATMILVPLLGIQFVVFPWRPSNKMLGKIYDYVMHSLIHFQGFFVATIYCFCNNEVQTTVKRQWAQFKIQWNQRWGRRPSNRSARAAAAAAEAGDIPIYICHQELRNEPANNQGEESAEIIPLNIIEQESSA

T2: human amylin receptor (amylin 3(a) receptor: human calcitonin receptor coexpressed with RAMP-3) (human, UniProt P30988 25-474; O60896 24-148)
T2 sequence (looked up) 1: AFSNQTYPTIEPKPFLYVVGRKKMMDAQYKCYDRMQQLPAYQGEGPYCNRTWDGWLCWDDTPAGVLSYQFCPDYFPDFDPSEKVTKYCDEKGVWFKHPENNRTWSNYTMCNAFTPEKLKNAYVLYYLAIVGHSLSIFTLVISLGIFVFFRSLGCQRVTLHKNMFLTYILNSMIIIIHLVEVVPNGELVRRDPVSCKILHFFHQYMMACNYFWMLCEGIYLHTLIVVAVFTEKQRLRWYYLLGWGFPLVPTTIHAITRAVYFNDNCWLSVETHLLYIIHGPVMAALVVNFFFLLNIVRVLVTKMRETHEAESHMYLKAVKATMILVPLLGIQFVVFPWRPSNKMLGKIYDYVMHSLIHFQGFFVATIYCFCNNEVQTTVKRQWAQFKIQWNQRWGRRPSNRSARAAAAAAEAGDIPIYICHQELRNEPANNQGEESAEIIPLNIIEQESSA
T2 sequence (looked up) 2: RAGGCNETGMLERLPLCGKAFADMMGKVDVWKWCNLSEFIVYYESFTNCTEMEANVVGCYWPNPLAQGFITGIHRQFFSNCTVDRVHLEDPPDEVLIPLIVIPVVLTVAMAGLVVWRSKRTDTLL


Legend:
[1] = molecular target: T1, human calcitonin receptor; assay: cell-based or functional assay
[2] = molecular target: T2, human amylin receptor (amylin 3(a) …); assay: cell-based or functional assay

| Ratio hCT/hAmylin funct. [1] | hCTR funct. EC50 (pM) [1] [pM] | hAmylin-R funct. EC50 (pM) [2] [pM] | Binder |
| --- | --- | --- | --- |
| 29.3 | 8160 | 278 | K([γGlu-γGlu-C20 diacid])CNTATCATQRLAEFLRHSSPNFGAIPSSTNVGPRTY-NH2 (disulfide 2-7; N-terminus assumed; SMILES CC[C@H](C)[C@H](NC(=O)[C@H](C)NC(=O)CNC(=O)[C@H](Cc1ccccc1)NC(=O)[C@H](CC(N)=O)NC(=O)[C@@H]1CCCN1C(=O)[C@H](CO)NC(=O)[C@H](CO)NC(=O)[C@H](Cc1c[nH]cn1)NC(=O)[C@H](CCCNC(=N)N)NC(=O)[C@H](CC(C)C)NC(=O)[C@H](Cc1ccccc1)NC(=O)[C@H](CCC(=O)O)NC(=O)[C@H](C)NC(=O)[C@H](CC(C)C)NC(=O)[C@H](CCCNC(=N)N)NC(=O)[C@H](CCC(N)=O)NC(=O)[C@@H](NC(=O)[C@H](C)NC(=O)[C@@H]1CSSC[C@H](NC(=O)[C@@H](N)CCCCNC(=O)CC[C@H](NC(=O)CC[C@H](NC(=O)CCCCCCCCCCCCCCCCCCC(=O)O)C(=O)O)C(=O)O)C(=O)N[C@@H](CC(N)=O)C(=O)N[C@@H]([C@@H](C)O)C(=O)N[C@@H](C)C(=O)N[C@@H]([C@@H](C)O)C(=O)N1)[C@@H](C)O)C(=O)N1CCC[C@H]1C(=O)N[C@@H](CO)C(=O)N[C@@H](CO)C(=O)N[C@H](C(=O)N[C@@H](CC(N)=O)C(=O)N[C@H](C(=O)NCC(=O)N1CCC[C@H]1C(=O)N[C@@H](CCCNC(=N)N)C(=O)N[C@H](C(=O)N[C@@H](Cc1ccc(O)cc1)C(N)=O)[C@@H](C)O)C(C)C)[C@@H](C)O, also called compound 110) |
| 28 | 2380 | 85 | K([γGlu-γGlu-C20 diacid])CNTATCATQRLAHFLRHSSPNFGAIPSSTNVGSNTY-NH2 (disulfide 2-7; N-terminus assumed; SMILES CC[C@H](C)[C@H](NC(=O)[C@H](C)NC(=O)CNC(=O)[C@H](Cc1ccccc1)NC(=O)[C@H](CC(N)=O)NC(=O)[C@@H]1CCCN1C(=O)[C@H](CO)NC(=O)[C@H](CO)NC(=O)[C@H](Cc1c[nH]cn1)NC(=O)[C@H](CCCNC(=N)N)NC(=O)[C@H](CC(C)C)NC(=O)[C@H](Cc1ccccc1)NC(=O)[C@H](Cc1c[nH]cn1)NC(=O)[C@H](C)NC(=O)[C@H](CC(C)C)NC(=O)[C@H](CCCNC(=N)N)NC(=O)[C@H](CCC(N)=O)NC(=O)[C@@H](NC(=O)[C@H](C)NC(=O)[C@@H]1CSSC[C@H](NC(=O)[C@@H](N)CCCCNC(=O)CC[C@H](NC(=O)CC[C@H](NC(=O)CCCCCCCCCCCCCCCCCCC(=O)O)C(=O)O)C(=O)O)C(=O)N[C@@H](CC(N)=O)C(=O)N[C@@H]([C@@H](C)O)C(=O)N[C@@H](C)C(=O)N[C@@H]([C@@H](C)O)C(=O)N1)[C@@H](C)O)C(=O)N1CCC[C@H]1C(=O)N[C@@H](CO)C(=O)N[C@@H](CO)C(=O)N[C@H](C(=O)N[C@@H](CC(N)=O)C(=O)N[C@H](C(=O)NCC(=O)N[C@@H](CO)C(=O)N[C@@H](CC(N)=O)C(=O)N[C@H](C(=O)N[C@@H](Cc1ccc(O)cc1)C(N)=O)[C@@H](C)O)C(C)C)[C@@H](C)O, also called compound 92) |
| 16.4 | 2830 | 172 | K([γGlu-γGlu-C20 diacid])CNTATCATQRLAEFLRHSSPNFGAIPSSTNVGPHTY-NH2 (disulfide 2-7 (inferred)) |

More lines, now with the values behind:

| Binder | Ratio hCT/hAmylin funct. [1] | hCTR funct. EC50 (pM) [1] [pM] | hAmylin-R funct. EC50 (pM) [2] [pM] |
| --- | --- | --- | --- |
| K([γGlu-γGlu-C20 diacid])CNTATCATQRLANFLRHSSPNFGAIPSSTNVGHNTY-NH2 (disulfide 2-7; N-terminus assumed; SMILES CC[C@H](C)[C@H](NC(=O)[C@H](C)NC(=O)CNC(=O)[C@H](Cc1ccccc1)NC(=O)[C@H](CC(N)=O)NC(=O)[C@@H]1CCCN1C(=O)[C@H](CO)NC(=O)[C@H](CO)NC(=O)[C@H](Cc1c[nH]cn1)NC(=O)[C@H](CCCNC(=N)N)NC(=O)[C@H](CC(C)C)NC(=O)[C@H](Cc1ccccc1)NC(=O)[C@H](CC(N)=O)NC(=O)[C@H](C)NC(=O)[C@H](CC(C)C)NC(=O)[C@H](CCCNC(=N)N)NC(=O)[C@H](CCC(N)=O)NC(=O)[C@@H](NC(=O)[C@H](C)NC(=O)[C@@H]1CSSC[C@H](NC(=O)[C@@H](N)CCCCNC(=O)CC[C@H](NC(=O)CC[C@H](NC(=O)CCCCCCCCCCCCCCCCCCC(=O)O)C(=O)O)C(=O)O)C(=O)N[C@@H](CC(N)=O)C(=O)N[C@@H]([C@@H](C)O)C(=O)N[C@@H](C)C(=O)N[C@@H]([C@@H](C)O)C(=O)N1)[C@@H](C)O)C(=O)N1CCC[C@H]1C(=O)N[C@@H](CO)C(=O)N[C@@H](CO)C(=O)N[C@H](C(=O)N[C@@H](CC(N)=O)C(=O)N[C@H](C(=O)NCC(=O)N[C@@H](Cc1c[nH]cn1)C(=O)N[C@@H](CC(N)=O)C(=O)N[C@H](C(=O)N[C@@H](Cc1ccc(O)cc1)C(N)=O)[C@@H](C)O)C(C)C)[C@@H](C)O, also called compound 86) |  | 19200 | 298 |
| K([γGlu-C20 diacid])CNTATCATQRLANFLRHSSPNFGAIPSSTNVGHNTY-NH2 (disulfide 2-7; N-terminus assumed; SMILES CC[C@H](C)[C@H](NC(=O)[C@H](C)NC(=O)CNC(=O)[C@H](Cc1ccccc1)NC(=O)[C@H](CC(N)=O)NC(=O)[C@@H]1CCCN1C(=O)[C@H](CO)NC(=O)[C@H](CO)NC(=O)[C@H](Cc1c[nH]cn1)NC(=O)[C@H](CCCNC(=N)N)NC(=O)[C@H](CC(C)C)NC(=O)[C@H](Cc1ccccc1)NC(=O)[C@H](CC(N)=O)NC(=O)[C@H](C)NC(=O)[C@H](CC(C)C)NC(=O)[C@H](CCCNC(=N)N)NC(=O)[C@H](CCC(N)=O)NC(=O)[C@@H](NC(=O)[C@H](C)NC(=O)[C@@H]1CSSC[C@H](NC(=O)[C@@H](N)CCCCNC(=O)CC[C@H](NC(=O)CCCCCCCCCCCCCCCCCCC(=O)O)C(=O)O)C(=O)N[C@@H](CC(N)=O)C(=O)N[C@@H]([C@@H](C)O)C(=O)N[C@@H](C)C(=O)N[C@@H]([C@@H](C)O)C(=O)N1)[C@@H](C)O)C(=O)N1CCC[C@H]1C(=O)N[C@@H](CO)C(=O)N[C@@H](CO)C(=O)N[C@H](C(=O)N[C@@H](CC(N)=O)C(=O)N[C@H](C(=O)NCC(=O)N[C@@H](Cc1c[nH]cn1)C(=O)N[C@@H](CC(N)=O)C(=O)N[C@H](C(=O)N[C@@H](Cc1ccc(O)cc1)C(N)=O)[C@@H](C)O)C(C)C)[C@@H](C)O, also called compound 77) [N^ε1-[(4S)-4-carboxy-4-(19-carboxynonadecanoylamino)butanoyl]-[Arg17,Pro21,Pro27,His34]-h-amylin] |  | 5400 | 145 |
